Laboratory results from patent US20220325265A1, “GLUCOCEREBROSIDASE MUTANTS” (Hoffmann-la Roche Inc., priority 2019, published 2022).
Numbering of substitutions follows the chain as printed. In names and notes the source's numbering stands. Several values for one entry are separate records, joined by “and”; a condition that tells them apart may be missing. Equal entries are not always repeated.

Assays:
[1] = pH screening of hGCase variants (activity assay, pH 3.5-8); assay type: biochemical; conditions: for relative activity: highest activity = 100%; for shape of pH spectrum: pH 3.5-8; for pH optimum: pH range 3.5-8, 75 nM protein, 100% relative activity
Experimental: (§1) For all further GCase characterization experiments including the activity assay, 20 μM substrate concentration, 30-40 min incubation time and protein concentrations ranging from 25-100 nM were set as final assay settings to ensure measurements in the linear range. The overall DMSO concentration within the assay was kept at 0.5% (v/v) or even below, since DMSO influences the fluorescent signal with higher concentrations (experimentally tested, data not shown; confirmed by (Urban et al., 2008). Therefore, GCase activity buffer+1% (v/v) DMSO was also used for dilutions (table 2.9). The plate reader SpectraMax i3 (Molecular Devices) including the analysis software SoftMax Pro 6.4 was used for all activity measurements within this work. The program settings were kept the same for all activity runs: kinetic run, measurement temperature: 37° C., PMT Gain: high; flashes per read: 6; read height: 0.73305 mm from plate.
A pH optimum screening was done to observe a possible shift in the pH spectrum of the new variants due to structural modification of the enzymes. Therefore, three different buffers were used, covering a pH range of pH 3.5 to 8. For the screening, buffer substances were chosen after the use for purification buffers. Therefore, following buffers were prepared: Citric acid buffer (20 mM, pH 3.5-5), MES buffer (20 mM, pH 6-6.5) and HEPES buffer (20 mM, pH 7-8). The final protein concentration used for this assay was 75 nM. The activity assay was done as described in section 2.3.5 (table 2.11), merely the buffer was varied.
A possible pH optimum shift due to structural modifications should be examined. Since the GCase enzyme originally occurs within the lysosome, its natural pH optimum is reported to be between pH 4.7-6.0 (Lieberman et al., 2007; Liou et al., 2006; Tan et al., 2014). This could change when including slight modifications in the structure of the molecule. Thus, the mutants were tested within a pH range of 3.5 to 8 for enzymatic activity.

[2] = Determination of the kinetic parameters (Michaelis-Menten) with artificial substrate; assay type: biochemical; conditions: for kcat: protein concentration used: 25 nM; for Km / Vmax: res-β-glc 4-500 μM, 25 nM protein
Experimental: The kinetic parameters were examined using the artificial substrate resorufin-β-glucopyranoside (Sigma-Aldrich). For the determination, final concentrations of substrate ranging from 4-500 μM were tested. The assay followed the activity assay instructions in section 2.3.5. 25 nM final protein concentration was used for each construct. The incubation time was set to 30 min to ensure measurements in the linear signal range. The kinetics were evaluated and plotted according to Michaelis-Menten (Cornish-Bowden, 2013; Johnson, 2015). KM, Vmax was calculated by GraphPad Prism7 applying the Michaelis-Menten fit equation provided by the program. The equation model follows: […]
with: • KM: Michaelis-Menten constant [μM] • Vmax: maximum velocity of reaction [μM/min]
The kinetic parameter kcat is defined as the catalytic constant, representing the turnover number of substrate to product per time unit (here per second) (Eisenthal et al., 2007). kcat can be calculated as follows: […]
with: • kcat: turnover number [min-1] • Vmax: maximum velocity of reaction [μM/min] • [E]tot.: total enzyme concentration [nM]
Another kinetic key parameter to describe the catalytic efficiency of enzymes is the parameter kcat/KM, measured in [μM−1*s−1] in this work (Eisenthal et al., 2007).
Determining enzyme kinetic key parameters gives solid information about the efficiency and efficacy of an enzyme and how certain mutations can impact its functionality. For the determination and comparison of the enzymatic performances, KM, Vmax and kcat as well as kcat/KM were calculated for the different hGCase variants, respectively (Eisenthal et al., 2007). The according assay was performed as described in section 2.5.5, all measured with the artificial substrate res-3-glc. KM and Vmax determination for representative mutant M53T/P55T was done applying the Michaelis-Menten curve fit (GraphPad Prism7; see equation 4) as shown in the following.
The kinetic raw data is depicted in FIG. 5 (A) with progression curves following pseudo first order in a linear measurement range with a good reproducibility and low variance. The slopes of the progression curves can be replotted, with velocities V [μM/min] plotted as a function of substrate concentration [S] applied, resulting in a typical course of a Michaelis-Menten curve (Cornish-Bowden, 2013; Johnson, 2015).

[3] = Heat inactivation at 55° C., residual GCase activity of purified protein; assay type: physicochemical; conditions: for residual activities after 5 and 10 min of incubation (in words): 55° C., compared to R495HS2; for residual GCase activity after heat inactivation: 55° C. waterbath, 50 nM protein, initial activity = 100%
Experimental: as §1
Another approach to test the mutants for thermal stability is the irreversible heat inactivation at 55° C. (Futami et al., 2017; Zale & Klibanov, 1986). As initial screening to select for most promising candidates, this thermal stability approach was chosen (section 3.1.1). For this, supernatant samples of each construct were taken from the 30 ml S2 cell cultures, respectively (section 2.2). The protein concentration was not adjusted. The samples were incubated for 40 min in total at 55° C. (PCR Cycler Mastercycler gradient, Eppendorf) using PCR plates (FrameStar®96 well skirted PCR plate, 4titude Ltd.). Samples were taken after 5, 7, 10, 15, 20, 30 and 40 min for residual activity measurements. The activity assay was performed as described in section 2.3.5. The initial activity of each mutant was set to 100% before heating. Residual activities were calculated in regard to the initial activity. Data points were fitted using the one phase decay fit by GraphPad Prism7 following equation 3: […]
For the heat inactivation experiment of purified protein (see section 3.3.3), hGCase protein samples were prepared with a final concentration of 50 nM, diluted in hGCase activity buffer, pH 6.0 (table 2.9) and incubated for 5 and 10 minutes in the waterbath (Julabo 5A, Julabo) at 55° C.
The second approach was aimed to test residual GCase activity after thermal inactivation at a fixed temperature. With this additional approach, the focus was set on activity-based changes with increased incubation time (Futami et al., 2017; Zale & Klibanov, 1986). Here, samples were incubated for 5 and 10 minutes in the waterbath at 55° C. Residual GCase activities were measured with the initial activity set to 100% (before heating). FIG. 2 depicts calculated residual activities for tested mutants after incubation.

[4] = pH 3.5, 20 mM citric acid buffer

B1: R495HS2: hGCase based on the Cerezyme sequence (R495H) but produced in S2 cells, His8-tagged; Seq. Id. No. 1 (protein, listed as Homo sapiens)
chain: ARPCIPKSFGYSSVVCVCNATYCDSFDPPTFPALGTFSRYESTRSGRRMELSMGPIQANHTGTGLLLTLQPEQKFQKVKGFGGAMTDAAALNILALSPPAQNLLLKSYFSEEGIGYNIIRVPMASCDFSIRTYTYADTPDDFQLHNFSLPEEDTKLKIPLIHRALQLAQRPVSLLASPWTSPTWLKTNGAVNGKGSLKGQPGDIYHQTWARYFVKFLDAYAEHKLQFWAVTAENEPSAGLLSGYPFQCLGFTPEHQRDFIARDLGPTLANSTHHNVRLLMLDDQRLLLPHWAKVVLTDPEAAKYVHGIAVHWYLDFLAPAKATLGETHRLFPNTMLFASEACVGSKFWEQSVRLGSWDRGMQYSHSIITNLLYHVVGWTDWNLALNPEGGPNWVRNFVDSPIIVDITKDTFYKQPMFYHLGHFSKFIPEGSQRVGLVASQKNDLDAVALMHPDGSAVVVVLNRSSKDVPLTIKDPAVGFLETISPGYSIHTYLWHRQ
modifications: His8 tag
B1 showed a relative activity [1, 4] of 80%, a kcat [2] of 0.05 s⁻¹ and a Km [2] of 189 ± 45.5 µM. For the same molecule, the Vmax [2] was 0.08 ± 0.01 µM/min and 0.08 µM/min.

B2: K321N: Amicus single mutant hGCase R495H/K321N produced in S2 cells; Seq. Id. No. 2 (protein, listed as Homo sapiens)
chain: B1 chain with K321N
notes: Amicus single mutant hGCase R495H/K321N produced in S2 cells; Id; No. 2
In the case of B2, the “residual activities after 5 and 10 min of incubation (in words)” value (“residual activities after 5 and 10 min” for short) [3] is reported as “significantly higher residual activities”, the kcat [2] is reported as 0.09 s⁻¹ and the Km [2] is reported as 131 µM. For the same molecule, the Vmax [2] was 0.14 µM/min.

B3: K321N/H145L: Amicus double mutant hGCase R495H/K321N/H145L produced in S2 cells; Seq. Id. No. 3 (protein, listed as Homo sapiens)
chain: B1 chain with H145L, K321N
notes: Amicus double mutant hGCase R495H/K321N/H145L produced in S2 cells; Id; No. 3
In the case of B3, the “residual activities after 5 and 10 min” value [3] is reported as “significantly higher residual activities”, the “shape of pH spectrum” value [1] is reported as “more bell-shaped pH spectrum” and the kcat [2] is reported as 0.09 s⁻¹. The Km [2] was 158 µM and 156 µM and the Vmax [2] was 0.13 µM/min.

B4: M53T/P55T: recombinant human β-glucocerebrosidase variant R495H/M53T/P55T, S2 cells; Seq. Id. No. 7 (protein, listed as Homo sapiens)
chain: B1 chain with M53T, P55T
notes: recombinant human β-glucocerebrosidase variant R495H/M53T/P55T, S2 cells; Id; No. 7
In the case of B4, the “residual GCase activity after heat inactivation” value (“residual GCase activity” for short) ([3]; 5 min incubation) is reported as 65%, the “residual GCase activity” value ([3]; 10 min incubation) is reported as 27% and the relative activity [1, 4] is reported as 80%. The “shape of pH spectrum” value [1] was “more bell-shaped pH spectrum”, the kcat [2] was 0.09 s⁻¹ and the Km [2] was 100 ± 15.8 µM. The Vmax [2] was 0.13 ± 0.01 µM/min and 0.13 µM/min.

B5: F31Y: recombinant human β-glucocerebrosidase variant R495H/F31Y, S2 cells; Seq. Id. No. 5 (protein, listed as Homo sapiens)
chain: B1 chain with F31Y
notes: recombinant human β-glucocerebrosidase variant R495H/F31Y, S2 cells; Id; No. 5
In the case of B5, the “residual GCase activity” value ([3]; 10 min incubation) is reported as roughly 27%, the relative activity [1, 4] is reported as roughly 80% and the pH optimum [1] is reported as 6 pH. For the same molecule, the kcat [2] was 0.07 s⁻¹, the Km [2] was 96.6 µM and the Vmax [2] was 0.11 µM/min.

B6: L34Q: recombinant human β-glucocerebrosidase variant R495H/L34Q, S2 cells; Seq. Id. No. 6 (protein, listed as Homo sapiens)
chain: B1 chain with L34Q
notes: recombinant human β-glucocerebrosidase variant R495H/L34Q, S2 cells; Id; No. 6
With B6 the “residual GCase activity” value ([3]; 10 min incubation) was roughly 27%, the relative activity [1, 4] was roughly 80% and the pH optimum [1] was 6 pH. The kcat [2] was 0.11 s⁻¹, the Km [2] was 143 µM and the Vmax [2] was 0.17 ± 0.01 µM/min and 0.17 µM/min.

B7: I5N: recombinant human β-glucocerebrosidase variant R495H/I5N, S2 cells; Seq. Id. No. 4 (protein, listed as Homo sapiens)
chain: B1 chain with I5N
notes: recombinant human β-glucocerebrosidase variant R495H/I5N, S2 cells; Id; No. 4
In the case of B7, the “residual GCase activity” value ([3]; 5 min incubation) is reported as 31%, the “residual GCase activity” value ([3]; 10 min incubation) is reported as 16% and the relative activity [1, 4] is reported as 75%. The “activity at pH 8” value ([1]; pH 8, 20 mM HEPES buffer) was “completely inactive”, the kcat [2] was 0.09 s⁻¹ and the Km [2] was 118 µM. The Vmax [2] was 0.14 µM/min.

B8: imiglucerase (protein, UniProt P04062 40-536, looked up, variant R495H)
Lysosomal acid …: B1 chain
modifications: imiglucerase; CHO-produced
notes: Commercially available Cerezyme (imiglucerase, Genzyme), hGCase R495H produced in CHO cells
For B8, the “residual activities after 5 and 10 min” value [3] was “rapidly lose its initial activity but retained residual activity with further incubation”, the loss of activity [1, 4] was 40% and the kcat [2] was 0.09 s⁻¹. The Km [2] was 131 µM and the Vmax [2] was 0.14 µM/min.
